Patent CN116574180A

Biological target: 生物素标记的抗原多肽 (biotin-labelled human collagen IV α1 chain peptide, synthesised by GenScript) (human)
Assay: BLI (Fortebio Octet); biotinylated peptide on SA biosensor, antibody at 100-1.56 nM

Kd: 0.376 nM
B1: 8A12D2-2 (antibody, V domains shown)
VH: EVQLQQSGAELVKPGASVKLSCTASGFNIKDHYMHWVKQRTKQGLEWIGRIDPEDGKTNSAPEFQDKATITSDISSNTVYLQLYSLTSEDTAVYYCAYSNFGFAYWGRGTLVTVSA
VL: DIVMTQAAFSNPVTLGTSTSISCRSSRSLLHSNGITYLYWYLQKPGQSPQLLIYQMSSLASGVPDRFSANGSGTDFTLRISRVEAEDVGVYYCAQKLGLPYTFGGGTKLEIK
